Values belong to the binder of their own block, whether it stands above or below them.
Key:
Assay in all cases: SPR; biotinylated phosphopeptides immobilised on streptavidin chip (about 25 RU single, 50 RU tandem motifs); soluble recombinant protein injected; 37°C; HBS-EP; equilibrium binding (Table 4; same-day purification not given)
[1] = target: CD244 ITSM2 phosphopeptide (human)
[2] = target: CD244 ITSM3 phosphopeptide (human)
[3] = target: CD244 ITSM4 phosphopeptide (human)

- Kd [1]: 2300 nM
- Kd [2]: 2200 nM
- Kd [3]: 5600 nM
B1: SHIP SH2 (SH2 domain from human SHIP-1) (domain or fragment)
chain: WNHGNITRSKAEELLSRTGKDGSFLVRASESISRAYALCVLYRNCVYTYRILPNEDDKFTVQASEGVSMRFFTKLDQLIEFYKKENMGLVTHLQYPV

- Kd [1]: 24000 nM
B2: SHP-2 N-terminal + C-terminal (N+C) SH2 domains (domain or fragment)
chain: TSRRWFHPNITGVEAENLLLTRGVDGSFLARPSKSNPGDFTLSVRRNGAVTHIKIQNTGDYYDLYGGEKFATLAELVQYYMEHHGQLKEKNGDVIELKYPLNCADPTSERWFHGHLSGKEAEKLLTEKGKHGSFLVRESQSHPGDFVLSVRTGDDKGESNDGKSKVTHVMIRCQELKYDVGGGERFDSLTDLVEHYKKNPMVETLGTVLQLKQPLNTT

- Kd [1]: 60 nM
- Kd [2]: 70 nM
- Kd [3]: 40 nM
B3: EAT-2 (recombinant full-length human EAT-2) (natural protein)
chain: MDLPYYHGRLTKQDCETLLLKEGVDGNFLLRDSESIPGVLCLCVSFKNIVYTYRIFREKHGYYRIQTAEGSPKQVFPSLKELISKFEKPNQGMVVHLLKPIKRTSPSLRWRGLKLELETFVNSNSDYVDVLP

From paper PMC3958483, “Fine Specificity and Molecular Competition in SLAM Family Receptor Signalling” (PLoS ONE, 2014)
